Test results reported in US5786324A, “Synthetic peptides with bactericidal activity and endotoxin neutralizing activity for gram negative bacteria and methods for their use” (priority 1994, dated 1998).
Entries after “also recorded” stand apart in the source; their conditions may differ. Read-outs that look alike come from different tables or passages of the source.

Experiments:
E. coli B = assay: Bactericidal assay, E. coli B; type: cell-based
Procedure: (§1) The synthetically produced peptides were assayed for bactericidal activity against Pseudomonas aeruginosa, type 1, P. cepacia ATCC 25608, E. coli B, and Staphylococcus aureus 502A by standard methods.
(§2) Pseudomonas aeruginosa type 1 is a clinical isolate maintained in the laboratory since 1972. The isolate remains a smooth strain and was serotyped by the scheme of Homma. Homma, Jpn. J. Exp. Med., 46:329 (1976). A rough strain E. coli B and S. aureus 502A were obtained from Paul Quie, University of Minnesota. The characteristics of the S. aureus strain have been described in Shinefield et al., Amer. J. Dis. Chil., 105:646 (1963). Pseudomonas cepacia ATCC 25608 was purchased from the American Type Culture Collection in 1980. S. aureus and E. coli were maintained on nutrient agar plates and the Pseudomonas strains were maintained on blood agar plates.
(§3) Pyrogen-free solutions were used throughout this assay and all methods which follow. Log phase bacteria were prepared from a culture in brain heart infusion broth as previously described except that bacteria were washed and resuspended in saline with adjustment to an optical density at 650 nm which would yield 3×10^8 CFU/ml. Bacteria were then diluted 1:10 in 0.08M citrate phosphate buffer, pH 5.6 or pH 7.0, for use in the assay. S. aureus rapidly lost viability in the pH 5.6 buffer and was studied only at pH 7.0. Bactericidal activity was determined by dose response and where an LD50 is indicated, it was determined by linear regression.

E. coli 055: B5 LPS = assay: Limulus amoebocyte lysate assay, neutralization of endotoxin; type: biochemical
Text: The peptide selected can also have endotoxin neutralizing activity. […] Endotoxin neutralizing activity can also be measured by calculating an inhibitory dose 50 […] using standard does response methods. An inhibitory dose 50 is that amount of peptide that can inhibit 50% of the activity of endotoxin. Endotoxin activity can also be measured by determining the amount of release of tumor necrosis factor alpha (TNFα) from a macrophage cell line or by evaluating the symptoms of shock in animals. Peptides preferably neutralized endotoxin at a molar concentration of about 1×10^-4 M to about 10^-8 M , more preferably about 10^-5 M to about 10^-6 M .
The ability of synthetic peptides to neutralize endotoxin was detected with the E-TOXATE kit manufactured by Sigma Chemicals, St. Louis, Mo. […] Peptide was incubated with LPS at room temperature for 10 minutes in 100 μl of a 1:2 dilution of pyrogen-free saline, pH 6.4. The reaction was started by addition of 100 μl of amoebocyte lysate and the final volume was 200 μl.
^a The dose of peptide required to inhibit clotting of LAL by 100%.
Each tube contained 0.04 endotoxin units of E. coli LPS.

[1] = system: Staphylococcus aureus 502A; type: cell-based; conditions: S. aureus; pH 7.0; 4.1 × 10^-9 M
Procedure: as §1, §2, §3

[2] = system: Pseudomonas aeruginosa type 1; type: cell-based; conditions: for % Killing of 5 × 10^6 Bacteria: P. aeruginosa
Procedure: Bactericidal activity can be evaluated against a variety of bacteria such as Pseudomonas spp including aeruginosa and P. cepacia, E. coli B, and Staphylococcus aureus. The preferred organism is P. aeruginosa. Bactericidal activity is determined by identifying the effective dose for killing as the molar concentration of the peptide which results in at least a 60% killing of the bacteria, as determined by standard methods. Preferably, the peptide has an effective dose at a concentration of about 1×10^-4 M to about 1×10^-10 M, and more preferably 1×10^-7 M to 1×10^-9M . […] The effective dose for bactericidal activity of B/PI is seen at about […] . Bactericidal activity can also be determined by calculating a lethal dose 50 (LD50) using standard methods. The LD50 is that amount of peptide or protein that kills 50% of the bacteria when measured using standard dose response methods. A bactericidal peptide preferably has an LD50 of about 10^-4 M to about 10^-9 M , more preferably about 10^-7 to 10^-9 M .
as §1, §2, §3

[3] = Storage stability of bactericidal activity of B/PI in elution buffer; type: physicochemical; conditions: 0.05M glycine buffer, pH 2.5, with 0.5M NaCl; 4° C. and -70° C.; prolonged periods
Procedure: Recombinant products can be purified from infected cells by immunoaffinity chromatography with the appropriate immobilized rabbit anti-peptide antibody or a mouse monoclonal antibody to B/PI. B/PI was reproducibly purified by application of partially purified samples of 2 mg protein to a 1.5×180 cm Toyopearl HW55S (Toso Haas) column or 200 mg protein to a TSX2000 HPLC (Beckman) column. The elution buffer for both columns is 0.05M glycine buffer, pH 2.5, with 0.5M NaCl. Recovery of B/PI protein was excellent and 100% of bactericidal activity is retained. The bactericidal activity of B/PI in this buffer was stable at 4° C. and at -70° C. for prolonged periods. The columns resolve protein standards over the range of 2-70 kD and can be used for all steps separation of fragments of B/PI by molecular weight. Reverse phase HPLC can be used if necessary.

P. cepacia ATCC 25608 = assay: Bactericidal assay, P. cepacia; type: cell-based, Pseudomonas cepacia; conditions: for % Killing of 5 × 10^6 Bacteria: P. cepacia, 4.1 × 10^-9 M
Procedure: as §1, §2, §3

[4] = Table 7, dose required to inhibit clotting of LAL by 100%, 0.04 endotoxin units of E. coli LPS

B1: B/PI: 55 kD bactericidal/permeability increasing protein purified from human neutrophil granules (protein)
chain: MRENMARGPCNAPRWVSLMVLVAIGTAVTAAVNPGVVVRISQKGLDYASQQGTAALQKELKRIKIPDYSDSFKIKHLGKGHYSFYSMDIREFQLPSSQISMVPNVGLKFSISNANIKISGKWKAQKRFLKMSGNFDLSIEGMSISADLKLGSNPTSGKPTITCSSCSSHINSVHVHISKSKVGWLIQLFHKKIESALRNKMNSQVCEKVTNSVSSKLQPYFQTLPVMTKIDSVAGINYGLVAPPATTAETLDVQMKGEFYSENHHNPPPFAPPVMEFPAAHDRMVYLGLSDYFFNTAGLVYQEAGVLKMTLRDDMIPKESKFRLTTKFFGTFLPEVAKKFPNMKIQIHVSASTPPHLSVQPTGLTFYPAVDVQAFAVLPNSSLASLFLIGMHTTGSMEVSAESNRLVGELRLDRLLLQLKHSNIGPFPVELLQDIMNYIVPILVLPRVNEKLQKGFPLPTPARVQLYNVVLQPHQNFLLFGADVVYK
- % Killing of 5 × 10^6 Bacteria (E. coli B; E. coli B, pH 5.6, 5.5 × 10^-9 M): 71%
- % Killing of 5 × 10^6 Bacteria (E. coli B; E. coli, pH 5.6, 4.1 × 10^-9 M): 35 ± 4%
- % Killing of 5 × 10^6 Bacteria (E. coli B; E. coli, pH 7.0, 4.1 × 10^-9 M): 25 ± 5%
- peptide concentration which neutralized endotoxin (100% inhibition of LPS-induced gelation) (E. coli 055: B5 LPS; 0.04 endotoxin units of E. coli 055: B5 LPS): about 10^-8 M
- Effective Dose (μg/0.2 ml) (E. coli 055: B5 LPS; [4]): 0.165 μg/0.2 ml
- Effective Dose M (× 10^-4) (E. coli 055: B5 LPS; [4]): 0.00015 M (× 10^-4)
- % Killing of 5 × 10^6 Bacteria [1]: 0%
- LD50 for P. aeruginosa ([2]; 5×10^6 CFU, pH 5.6, dose response, linear regression): 3.4 nM
- % Killing of 5 × 10^6 Bacteria ([2]; pH 5.6, 4.1 × 10^-9 M): 50 ± 5%
- % Killing of 5 × 10^6 Bacteria ([2]; pH 5.6, 5.5 × 10^-9 M): 87 ± 8%
- % Killing of 5 × 10^6 Bacteria ([2]; pH 7.0, 4.1 × 10^-9 M): 35 ± 3%
- stability of bactericidal activity on storage [3]: stable
- % Killing of 5 × 10^6 Bacteria (P. cepacia ATCC 25608; pH 5.6): 0%
- % Killing of 5 × 10^6 Bacteria (P. cepacia ATCC 25608; pH 7.0): 0%
- killing of P. cepacia (in words) (P. cepacia ATCC 25608; concentration 20fold higher: 9.1×10^-8 M, approximately 5 μg protein/ml): not killed; also recorded: resisted bactericidal activity
